Results published in article PMC3538678.

Key:
[1] = target: recombinant human laminin-511 (α5β1γ1) (human) (UniProt O15230)
[2] = target: recombinant human laminin-521 (α5β2γ1) (human) (UniProt O15230)
[3] = target: recombinant human laminin-511 (α5β1γ1) (human) (UniProt O15230); remark: listed apart in the source
[4] = target: recombinant human laminin-521 (α5β2γ1) (human) (UniProt O15230); remark: listed apart in the source

recombinant human α3β1 integrin (from UniProt P26006 33-1051; P05556 21-728) (receptor)
adhesion of BE melanoma cells to wells coated with rhLM511 (20 µg/ml), OD [1]: 1.65 OD
adhesion of KG1C glioma cells to wells coated with rhLM511 (20 µg/ml), OD [1]: 1.48 OD
adhesion of MDA-MB-231 breast carcinoma cells to wells coated with rhLM511 (20 µg/ml), OD [1]: 1.82 OD
adhesion of BE melanoma cells to wells coated with rhLM521 (20 µg/ml), OD [2]: 1.56 OD
adhesion of KG1C glioma cells to wells coated with rhLM521 (20 µg/ml), OD [2]: 1.39 OD
adhesion of MDA-MB-231 breast carcinoma cells to wells coated with rhLM521 (20 µg/ml), OD [2]: 1.85 OD
migration of carcinoma cells through membranes coated with rhLM511, cells/field [3]: 190 cells/field
migration of glioma cells through membranes coated with rhLM511, cells/field [3]: 161 cells/field
migration of melanoma cells through membranes coated with rhLM511, cells/field [3]: 88 cells/field
migration of carcinoma cells through membranes coated with rhLM521, cells/field [4]: 198 cells/field
migration of glioma cells through membranes coated with rhLM521, cells/field [4]: 174 cells/field
migration of melanoma cells through membranes coated with rhLM521, cells/field [4]: 203 cells/field
